According to patent publication US11130803B2, “Isoform-selective TGFβ1 inhibitors and use thereof” (Scholar Rock, Inc., priority 2018, dated 2021):
Residue numbers refer to the chain shown, from its start.

B1: Ab11: monoclonal antibody; VH SEQ ID NO: 239, VL SEQ ID NO: 241 (antibody, V domains shown)
VH: EVQLLESGGGLVQPGGSLRLSCAASGFTFRNYAMSWVRQAPGKGLEWVSSISGSGGATYYADSVKGRFTISRDNSKNTLYLQMNSLRAEDTAVYYCARVSSGHWDFDYWGQGTLVTVSS
VL: DIQLTQSPSSLSASVGDRVTITCRASQSISSYLNWYQQKPGKAPKLLIYAASNLQSGVPSRFSGSGSGTDFTLTISSLQPEDFATYYCQQTYTVPLTFGGGTKVEIK
B2: Ab20: monoclonal antibody; VH SEQ ID NO: 251, VL SEQ ID NO: 241 (antibody, V domains shown)
VH: B1 VH with R30S, N31A, S35T, S50A, A57V, F106Y
VL: B1 VL
B3: Ab22: monoclonal antibody; VH SEQ ID NO: 130, VL SEQ ID NO: 15 (antibody, V domains shown)
VH: EVQLVESGGGLVQPGGSLRLSCAASGFTFGSFSMNWVRQAPGKGLEWVSYIHSDASTIYYADSVKGRFTISRDNAKNSLYLQMNSLRAEDTAVYYCARGVLDYGDMLDPWGQGTLVTVSS
VL: DIQMTQSPSSLSASVGDRVTITCQASQDITNYLNWYQQKPGKAPKLLIYDASNLETGVPSRFSGSGSGTDFTFTISSLQPEDIATYYCQQADNHPPWTFGGGTKVEIK
B4: Ab29: monoclonal antibody; VH SEQ ID NO: 137, VL SEQ ID NO: 15 (antibody, V domains shown)
VH: B3 VH with G16R, G30S, S33A, H52S, S53P, D62G, A97V, G99A
VL: B3 VL
B5: Ab30: monoclonal antibody; VH SEQ ID NO: 138, VL SEQ ID NO: 15 (antibody, V domains shown)
VH: B3 VH with G30S, N35D, H52S, S53P, V100T
VL: B3 VL
B6: Ab32: monoclonal antibody; VH SEQ ID NO: 140, VL SEQ ID NO: 15 (antibody, V domains shown)
VH: B3 VH with G30S, H52S, S53P, D54S, S56D, S78T, L101W, Y103M
VL: B3 VL
B7: Ab24: monoclonal antibody; VH SEQ ID NO: 132, VL SEQ ID NO: 15 (antibody, V domains shown)
VH: B3 VH with G16R, G30S, S33A, N35Y, H52S, S53P
VL: B3 VL
B8: Ab31: monoclonal antibody; VH SEQ ID NO: 139, VL SEQ ID NO: 15 (antibody, V domains shown)
VH: B3 VH with G30S, N35D, H52S, S53P, S78T, G99A
VL: B3 VL
B9: Ab33: monoclonal antibody; VH SEQ ID NO: 141, VL SEQ ID NO: 15 (antibody, V domains shown)
VH: B3 VH with G30S, H52S, S53P, D54S, S56D, S78T, R98H
VL: B3 VL
B10: Ab26: monoclonal antibody; VH SEQ ID NO: 134, VL SEQ ID NO: 15 (antibody, V domains shown)
VH: B3 VH with G30S, N35D, H52S, S53P, S78T
VL: B3 VL

biological target: T1, recombinant human LTBP3-proTGFβ1 complex (Homo sapiens, UniProt P01137); assay: Octet (Biolayer Interferometry) in vitro kinetic binding; conditions: in M
T1 construct: made in house; host or cells: Expi293F cells, transient co-transfection
Text: (§1) Biolayer Interferometry (BLI):BLI is a label-free technology for optically measuring biomolecular interactions, e.g., between a ligand immobilized on the biosensor tip surface and an analyte in solution. BLI provides the ability to monitor binding specificity, rates of association and dissociation, or concentration, with precision and accuracy. BLI platform instruments are commercially available, for example, from ForteBio and are commonly referred to as the Octet® System.
(§2) BLI-based binding assays are widely used in the art for measuring affinities and kinetics of antibodies to antigens. It is a label-free technology in which biomolecular interactions are analyzed on the basis of optical interference. One of the proteins, for example, an antibody being tested, can be immobilized on the biosensor tip. When the other protein in solution, for example, an antigen, becomes bound to the immobilized antibody, it causes a shift in the interference pattern, which can be measured in real-time. This allows the monitoring of binding specificity, rates of association and dissociation, as well as concentration dependency. […] Due to its ease of use and fast results, BLI-based assays such as the Octet® system (available from ForteBio/Molecular Devices, Fremont Calif.), are particularly convenient when used as an initial screening method to identify and separate a pool of “binders” from a pool of “non-binders” or “weak binders” in the screening process.
(§3) Table 8 below provides non-limiting examples of high-affinity, context-independent proTGFβ1 antibodies encompassed by the present invention. The table provides representative results from in vitro binding assays, as measured by Octet®.
(§4) Column (A) of the table lists monoclonal antibodies with discrete amino acid sequences. […] Columns (B), (D), (E) and (F) provide affinities of each of the listed antibodies, measured in KD. […] Average KD values of (B) and (C) are shown in the corresponding column (D), which collectively represents affinities of the antibodies to ECM- or matrix-associated proTGFβ1 complexes. Similarly, Average KD values of (E) and (F) are shown in the corresponding column (G), which collectively represents affinities of the antibodies to cell-surface or cell-associated proTGFβ1 complexes. Finally, relative ratios between the average KD values from columns (D) and (G) are expressed as “fold bias” in column (H). Thus, the greater the number of column (H) is, the greater bias exists for the particular antibody, when comparing binding preferences of the antibody for matrix-associated complexes and cell-surface complexes. This is one way of quantitatively representing and comparing inherent bias of antibodies to their target complexes. Such analyses may be useful in guiding the selection process for a candidate antibody for particular therapeutic use.
(§5) In some embodiments, the binding affinity of an antibody, or antigen binding portion thereof, to an antigen (e.g., protein complex), such as presenting molecule-proTGFβ1 complexes, is determined using an Octet assay. In some embodiments, an Octet assay is an assay that determines one or more a kinetic parameters indicative of binding between an antibody and antigen. In some embodiments, an Octet® system (ForteBio, Menlo Park, Calif.) is used to determine the binding affinity of an antibody, or antigen binding portion thereof, to presenting molecule-proTGFβ1 complexes. For example, binding affinities of antibodies may be determined using the fortéBio Octet QKe dip and read label free assay system utilizing bio-layer interferometry. In some embodiments, antigens are immobilized to biosensors (e.g., streptavidin-coated biosensors) and the antibodies and complexes (e.g., biotinylated presenting molecule-proTGFβ1 complexes) are presented in solution at high concentration ([…]) to measure binding interactions. […]

T1 sequence (P01137 30-390): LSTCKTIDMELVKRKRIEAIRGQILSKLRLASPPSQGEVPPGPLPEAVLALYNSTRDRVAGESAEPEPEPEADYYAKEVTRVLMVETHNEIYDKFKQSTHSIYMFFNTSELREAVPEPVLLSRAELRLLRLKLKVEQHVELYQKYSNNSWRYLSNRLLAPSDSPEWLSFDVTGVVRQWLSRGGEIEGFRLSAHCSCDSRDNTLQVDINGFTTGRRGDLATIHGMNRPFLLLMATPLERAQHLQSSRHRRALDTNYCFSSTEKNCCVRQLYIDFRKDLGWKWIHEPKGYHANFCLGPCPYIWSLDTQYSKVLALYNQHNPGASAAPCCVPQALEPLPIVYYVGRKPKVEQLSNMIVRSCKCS
T1 sequence (Q9NS15 866-1039 partner limits assumed): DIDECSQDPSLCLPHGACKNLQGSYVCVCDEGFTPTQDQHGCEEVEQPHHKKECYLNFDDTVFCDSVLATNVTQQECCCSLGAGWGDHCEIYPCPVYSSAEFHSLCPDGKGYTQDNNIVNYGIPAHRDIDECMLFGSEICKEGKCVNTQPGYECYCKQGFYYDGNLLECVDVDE

(C) hLTBP3, Matrix-associated proTGFb1 (KD) | Molecule
1.54E−10 | B1
1.31E−10 | B2
3.29E−10 | B3
1.21E−10 | B4
2.61E−10 | B5
2.15E−10 | B6
1.98E−10 | B7
1.81E−10 | B8
1.11E−10 | B9
1.73E−10 | B10

biological target: T2, recombinant human GARP-proTGFβ1 complex (Homo sapiens, UniProt P01137); assay: as above; conditions: in M
T2 construct: made in house
Text: as §1, §2, §3, §4, §5

T2 sequence (P01137 30-390): as the sequence (P01137 30-390) above
T2 sequence (Q14392 20-627 partner limits assumed): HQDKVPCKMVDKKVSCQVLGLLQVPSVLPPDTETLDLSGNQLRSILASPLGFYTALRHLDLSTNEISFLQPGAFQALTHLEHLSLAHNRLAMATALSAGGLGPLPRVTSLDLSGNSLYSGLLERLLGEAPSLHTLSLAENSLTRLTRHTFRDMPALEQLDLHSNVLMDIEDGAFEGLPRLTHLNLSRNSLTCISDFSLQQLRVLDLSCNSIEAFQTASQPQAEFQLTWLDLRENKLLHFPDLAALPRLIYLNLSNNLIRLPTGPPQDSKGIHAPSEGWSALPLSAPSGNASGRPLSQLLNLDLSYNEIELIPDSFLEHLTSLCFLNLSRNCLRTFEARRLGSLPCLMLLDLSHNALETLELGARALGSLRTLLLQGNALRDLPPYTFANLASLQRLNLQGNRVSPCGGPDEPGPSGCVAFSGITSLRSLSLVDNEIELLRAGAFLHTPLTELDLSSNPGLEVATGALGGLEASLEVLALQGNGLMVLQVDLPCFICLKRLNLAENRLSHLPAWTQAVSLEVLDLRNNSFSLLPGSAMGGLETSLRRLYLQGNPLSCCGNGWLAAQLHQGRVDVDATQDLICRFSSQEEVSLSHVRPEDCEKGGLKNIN

(E) hGARP, Cell-associated proTGFb1 (KD) | Molecule
8.42E−10 | B1
8.84E−10 | B2
9.74E−10 | B3
3.07E−10 | B4
8.33E−10 | B5
4.96E−10 | B6
6.65E−10 | B7
5.81E−10 | B8
2.65E−10 | B9
6.25E−10 | B10

biological target: T3, recombinant human LTBP1-proTGFβ1 complex (Homo sapiens, UniProt P01137); assay: as above; conditions: in M
T3 construct: made in house; host or cells: Expi293F cells, transient co-transfection
Text: as §1, §2, §3, §4, §5

T3 sequence (P01137 30-390): as the sequence (P01137 30-390) above
T3 sequence (Q14766 873-1507 partner): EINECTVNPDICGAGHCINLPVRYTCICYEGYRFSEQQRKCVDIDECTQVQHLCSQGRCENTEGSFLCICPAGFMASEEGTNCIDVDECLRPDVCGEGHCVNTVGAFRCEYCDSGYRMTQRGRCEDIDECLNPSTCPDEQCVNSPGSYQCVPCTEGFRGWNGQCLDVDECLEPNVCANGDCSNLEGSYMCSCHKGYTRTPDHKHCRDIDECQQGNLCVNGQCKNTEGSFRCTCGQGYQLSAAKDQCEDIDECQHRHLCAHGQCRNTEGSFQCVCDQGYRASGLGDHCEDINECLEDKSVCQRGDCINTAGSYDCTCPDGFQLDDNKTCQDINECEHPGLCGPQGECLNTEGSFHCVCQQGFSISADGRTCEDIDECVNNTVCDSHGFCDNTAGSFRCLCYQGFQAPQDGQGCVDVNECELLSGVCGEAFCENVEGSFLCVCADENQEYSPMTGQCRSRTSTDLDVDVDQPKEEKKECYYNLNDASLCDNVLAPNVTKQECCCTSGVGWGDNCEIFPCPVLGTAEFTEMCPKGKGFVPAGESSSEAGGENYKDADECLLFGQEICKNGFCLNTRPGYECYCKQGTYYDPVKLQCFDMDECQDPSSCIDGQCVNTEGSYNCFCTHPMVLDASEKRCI

(B) hLTBP1, Matrix-associated proTGFb1 (KD) | Molecule
1.67E−10 | B1
1.92E−10 | B2
3.18E−10 | B3
1.89E−10 | B4
3.32E−10 | B5
2.69E−10 | B6
2.46E−10 | B7
2.36E−10 | B8
1.79E−10 | B9
2.21E−10 | B10

biological target: T4, recombinant human LRRC33-proTGFβ1 complex (Homo sapiens, UniProt P01137); assay: as above; conditions: in M
T4 construct: made in house
Text: as §1, §2, §3, §4, §5

T4 sequence (P01137 30-390): as the sequence (P01137 30-390) above
T4 sequence (Q86YC3 19-650 partner limits assumed): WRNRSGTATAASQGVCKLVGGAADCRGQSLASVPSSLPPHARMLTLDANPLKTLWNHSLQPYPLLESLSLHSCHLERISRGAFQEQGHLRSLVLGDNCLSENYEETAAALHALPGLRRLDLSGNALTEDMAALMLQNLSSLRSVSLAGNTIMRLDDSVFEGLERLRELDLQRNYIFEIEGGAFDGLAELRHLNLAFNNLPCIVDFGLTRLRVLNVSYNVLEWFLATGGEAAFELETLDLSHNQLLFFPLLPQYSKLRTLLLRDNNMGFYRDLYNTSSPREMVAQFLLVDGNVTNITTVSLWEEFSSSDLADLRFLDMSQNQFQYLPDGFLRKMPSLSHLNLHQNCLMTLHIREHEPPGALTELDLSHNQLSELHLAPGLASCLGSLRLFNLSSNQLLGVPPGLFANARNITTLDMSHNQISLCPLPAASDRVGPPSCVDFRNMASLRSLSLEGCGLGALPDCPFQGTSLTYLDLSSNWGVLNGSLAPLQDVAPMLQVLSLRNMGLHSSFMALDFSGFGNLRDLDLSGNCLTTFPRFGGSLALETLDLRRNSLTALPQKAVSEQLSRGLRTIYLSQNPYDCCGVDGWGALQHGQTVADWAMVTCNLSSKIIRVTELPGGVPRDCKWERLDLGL

(F) hLRRC33, Cell-associated proTGFb1 (KD) | Molecule
5.55E−10 | B1
5.45E−10 | B2
4.15E−10 | B3
3.02E−10 | B4
5.35E−10 | B5
6.98E−10 | B6
4.10E−10 | B7
4.10E−10 | B8
3.39E−10 | B9
3.60E−10 | B10

tested on: matrix-associated (LTBP1/LTBP3) and cell-associated (GARP/LRRC33) proTGFβ1 complexes; assay: Octet: average KD and fold bias, matrix- vs cell-associated complexes; format: binding, human; conditions: average KD of (B) and (C), read-out: (D) ECM AVRG

Molecule | Kd [pM]
B1 | 160
B2 | 162
B3 | 324
B4 | 155
B5 | 296
B6 | 242
B7 | 222
B8 | 208
B9 | 145
B10 | 197

tested on: matrix-associated (LTBP1/LTBP3) and cell-associated (GARP/LRRC33) proTGFβ1 complexes; assay: as above; format: binding, human; conditions: average KD of (E) and (F), cell-associated complexes, read-out: (G) Cell AVRG
Text: Column (A) of the table lists monoclonal antibodies with discrete amino acid sequences. […] Columns (B), (D), (E) and (F) provide affinities of each of the listed antibodies, measured in KD. […] Average KD values of (B) and (C) are shown in the corresponding column (D), which collectively represents affinities of the antibodies to ECM- or matrix-associated proTGFβ1 complexes. Similarly, Average KD values of (E) and (F) are shown in the corresponding column (G), which collectively represents affinities of the antibodies to cell-surface or cell-associated proTGFβ1 complexes. Finally, relative ratios between the average KD values from columns (D) and (G) are expressed as “fold bias” in column (H). […] This is one way of quantitatively representing and comparing inherent bias of antibodies to their target complexes.
Average KD values between the two matrix-associated and cell-associated complexes are calculated, respectively (see columns (D) and (G)). These average KD values can then be used to ask whether bias in binding activities exists between complexes associated with matrix vs. complexes associated with cell surface (e.g., immune cells). Bias may be expressed as “fold-difference” in the average KD values, as illustrated in Table 8.

Molecule | Kd [pM]
B1 | 698
B2 | 714
B3 | 694
B4 | 304
B5 | 684
B6 | 597
B7 | 538
B8 | 496
B9 | 302
B10 | 492

same assay, conditions: ratio of average KD cell-associated / matrix-associated

Molecule | (H) G/D (fold bias) [fold]
B1 | 4.352
B2 | 4.424
B3 | 2.147
B4 | 1.965
B5 | 2.307
B6 | 2.467
B7 | 2.421
B8 | 2.376
B9 | 2.083
B10 | 2.500
